This note sets out measurements from US20100229252, “MEGANUCLEASE VARIANTS CLEAVING A DNA TARGET SEQUENCE FROM THE HUMAN HEMOGLOBIN BETA GENE AND USES THEREOF” (CELLECTIS, published 2010).

Assay in all cases: cell_activity; CHO extrachromosomal LacZ assay
Series [1] deals with T1, I-CreI heterodimer HBB8.3_I3 / HBB8.4_B4 (Chlamydomonas reinhardtii, UniProt P05725;P05725 SEQ:1-167,SEQ:1-167).
T1 chain 1: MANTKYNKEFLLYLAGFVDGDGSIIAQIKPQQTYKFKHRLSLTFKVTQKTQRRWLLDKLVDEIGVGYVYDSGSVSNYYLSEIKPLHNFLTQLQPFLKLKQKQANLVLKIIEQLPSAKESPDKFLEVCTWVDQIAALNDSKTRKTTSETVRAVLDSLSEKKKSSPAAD
T1 chain 2: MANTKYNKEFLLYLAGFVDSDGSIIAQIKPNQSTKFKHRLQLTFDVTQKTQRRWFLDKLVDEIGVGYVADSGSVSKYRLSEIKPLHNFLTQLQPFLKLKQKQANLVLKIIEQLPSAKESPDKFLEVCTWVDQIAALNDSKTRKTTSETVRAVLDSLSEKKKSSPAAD

Series [2] deals with T2, I-CreI heterodimer HBB8.3_I3 / HBB8.4_A4 (Chlamydomonas reinhardtii, UniProt P05725;P05725 SEQ:1-167,SEQ:1-167).
T2 chain 1: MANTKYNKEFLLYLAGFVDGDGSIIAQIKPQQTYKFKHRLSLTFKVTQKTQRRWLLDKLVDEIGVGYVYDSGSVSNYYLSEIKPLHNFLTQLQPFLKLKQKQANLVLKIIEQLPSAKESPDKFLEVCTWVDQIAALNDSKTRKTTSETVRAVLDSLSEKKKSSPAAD
T2 chain 2: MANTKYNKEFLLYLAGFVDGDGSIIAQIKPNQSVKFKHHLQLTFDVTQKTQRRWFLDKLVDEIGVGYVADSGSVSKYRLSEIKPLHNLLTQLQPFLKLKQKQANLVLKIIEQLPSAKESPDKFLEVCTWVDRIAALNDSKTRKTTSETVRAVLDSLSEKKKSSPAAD

Series [3] concerns the target T3, I-CreI heterodimer HBB8.3_C3 / HBB8.4_C4 (Chlamydomonas reinhardtii, UniProt P05725;P05725 SEQ:1-167,SEQ:1-167).
T3 chain 1: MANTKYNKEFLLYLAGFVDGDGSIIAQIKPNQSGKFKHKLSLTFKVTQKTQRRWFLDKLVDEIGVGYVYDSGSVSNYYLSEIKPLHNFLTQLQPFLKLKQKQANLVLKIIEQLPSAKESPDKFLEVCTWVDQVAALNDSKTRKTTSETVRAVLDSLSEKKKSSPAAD
T3 chain 2: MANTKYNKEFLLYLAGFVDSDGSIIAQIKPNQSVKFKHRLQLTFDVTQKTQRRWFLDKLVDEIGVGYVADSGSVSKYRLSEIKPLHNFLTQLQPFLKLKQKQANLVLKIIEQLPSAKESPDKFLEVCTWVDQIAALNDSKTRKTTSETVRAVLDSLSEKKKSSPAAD

For series [4], the target named is T4, I-CreI heterodimer HBB8.3_D3 / HBB8.4_D4 (Chlamydomonas reinhardtii, UniProt P05725;P05725 SEQ:1-167,SEQ:1-167).
T4 chain 1: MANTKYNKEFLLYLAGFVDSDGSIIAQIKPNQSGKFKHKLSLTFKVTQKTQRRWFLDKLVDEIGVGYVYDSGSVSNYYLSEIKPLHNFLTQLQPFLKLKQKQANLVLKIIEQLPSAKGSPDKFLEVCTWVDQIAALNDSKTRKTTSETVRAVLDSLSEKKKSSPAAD
T4 chain 2: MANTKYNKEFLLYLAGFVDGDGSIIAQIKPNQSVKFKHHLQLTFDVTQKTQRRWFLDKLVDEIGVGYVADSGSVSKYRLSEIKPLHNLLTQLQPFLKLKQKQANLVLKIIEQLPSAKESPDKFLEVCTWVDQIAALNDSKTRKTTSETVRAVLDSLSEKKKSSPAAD

The target in series [5] is T5, I-CreI heterodimer HBB8.3_L3 / HBB8.4_A4 (Chlamydomonas reinhardtii, UniProt P05725;P05725 SEQ:1-167,SEQ:1-167).
T5 chain 1: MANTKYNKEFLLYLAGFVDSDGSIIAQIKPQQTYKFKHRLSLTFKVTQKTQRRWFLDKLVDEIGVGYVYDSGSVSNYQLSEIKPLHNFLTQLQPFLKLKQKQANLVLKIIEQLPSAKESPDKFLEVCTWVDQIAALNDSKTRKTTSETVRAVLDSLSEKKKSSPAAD
T5 chain 2: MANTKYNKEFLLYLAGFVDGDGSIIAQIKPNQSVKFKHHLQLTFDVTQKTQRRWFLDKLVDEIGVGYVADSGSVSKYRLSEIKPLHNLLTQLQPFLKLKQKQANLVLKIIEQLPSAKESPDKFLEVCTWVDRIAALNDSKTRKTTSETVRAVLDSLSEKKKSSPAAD

For series [6], the target named is T6, I-CreI heterodimer HBB8.3_J3 / HBB8.4_B4 (Chlamydomonas reinhardtii, UniProt P05725;P05725 SEQ:1-167,SEQ:1-167).
T6 chain 1: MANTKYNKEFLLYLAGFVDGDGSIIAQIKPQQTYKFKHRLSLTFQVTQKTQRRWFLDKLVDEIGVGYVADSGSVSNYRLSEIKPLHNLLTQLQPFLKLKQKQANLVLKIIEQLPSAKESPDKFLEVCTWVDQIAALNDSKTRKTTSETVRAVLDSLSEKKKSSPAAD
T6 chain 2: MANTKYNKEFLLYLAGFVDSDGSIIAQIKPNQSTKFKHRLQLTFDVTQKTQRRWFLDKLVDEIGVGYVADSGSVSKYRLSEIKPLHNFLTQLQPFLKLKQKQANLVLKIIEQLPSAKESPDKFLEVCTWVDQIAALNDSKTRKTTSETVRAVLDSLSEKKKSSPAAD

The target in series [7] is T7, I-CreI heterodimer HBB8.3_B3 / HBB8.4_C4 (Chlamydomonas reinhardtii, UniProt P05725;P05725 SEQ:1-167,SEQ:1-167).
T7 chain 1: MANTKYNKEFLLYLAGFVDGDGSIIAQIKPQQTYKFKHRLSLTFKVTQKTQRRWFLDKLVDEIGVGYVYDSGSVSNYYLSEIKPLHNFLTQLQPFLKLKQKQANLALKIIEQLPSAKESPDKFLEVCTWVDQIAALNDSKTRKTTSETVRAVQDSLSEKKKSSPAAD
T7 chain 2: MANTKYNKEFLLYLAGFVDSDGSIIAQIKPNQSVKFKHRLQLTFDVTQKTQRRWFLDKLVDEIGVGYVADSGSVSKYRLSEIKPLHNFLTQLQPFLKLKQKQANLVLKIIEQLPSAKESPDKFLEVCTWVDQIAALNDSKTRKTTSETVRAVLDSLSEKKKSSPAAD

In series [8] the target is T8, I-CreI heterodimer HBB8.3_I3 / HBB8.4_D4 (Chlamydomonas reinhardtii, UniProt P05725;P05725 SEQ:1-167,SEQ:1-167).
T8 chain 1: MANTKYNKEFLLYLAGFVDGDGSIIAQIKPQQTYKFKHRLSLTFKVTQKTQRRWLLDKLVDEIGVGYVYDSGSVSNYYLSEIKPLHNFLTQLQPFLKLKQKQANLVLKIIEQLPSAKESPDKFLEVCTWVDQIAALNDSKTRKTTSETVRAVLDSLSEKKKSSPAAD
T8 chain 2: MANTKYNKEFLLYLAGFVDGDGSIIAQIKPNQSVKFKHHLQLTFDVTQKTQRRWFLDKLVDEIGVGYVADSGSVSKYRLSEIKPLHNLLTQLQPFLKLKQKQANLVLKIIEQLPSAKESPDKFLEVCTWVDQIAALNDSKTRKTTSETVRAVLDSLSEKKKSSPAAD

The target in series [9] is T9, I-CreI heterodimer HBB8.3_I3 / HBB8.4_C4 (Chlamydomonas reinhardtii, UniProt P05725;P05725 SEQ:1-167,SEQ:1-167).
T9 chain 1: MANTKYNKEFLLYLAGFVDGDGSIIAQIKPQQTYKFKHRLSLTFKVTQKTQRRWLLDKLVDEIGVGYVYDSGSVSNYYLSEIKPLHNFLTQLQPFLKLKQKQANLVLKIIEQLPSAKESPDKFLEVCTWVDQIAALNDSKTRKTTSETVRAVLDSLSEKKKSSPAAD
T9 chain 2: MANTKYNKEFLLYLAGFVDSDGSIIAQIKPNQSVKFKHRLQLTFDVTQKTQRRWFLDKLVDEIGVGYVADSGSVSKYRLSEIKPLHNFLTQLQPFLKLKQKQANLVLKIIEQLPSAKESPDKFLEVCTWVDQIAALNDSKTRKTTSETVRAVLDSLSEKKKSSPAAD

B1: HBB8 (dsDNA)
DNA 1: CTGACTCCTGTGGAGAAGTCTG
DNA 2: CAGACTTCTCCACAGGAGTCAG
For B1, the activity in series [1] was 2.26 absorbance units; in series [2] it was 1.15 absorbance units; in series [3], 2.62 absorbance units; in series [4], 2 absorbance units; in [5], 2.32 absorbance units; in series [6], 2.47 absorbance units. Further, the activity in [7] was determined as 2.32 absorbance units; in [8], 1.57 absorbance units; in series [9], 2.42 absorbance units.

B2: HBB6 (dsDNA)
DNA 1: CTGACTCCTGAGGAGAAGTCTG
DNA 2: CAGACTTCTCCTCAGGAGTCAG
As for B2, the activity was found to be 1.88 absorbance units in [1]; 0.45 absorbance units in series [2]; 1.87 absorbance units in [3]; 1.09 absorbance units in [4]; 1.96 absorbance units in series [5]; 1.75 absorbance units in [6]. For the same molecule, the activity worked out at 1.86 absorbance units in series [7], 0.12 absorbance units in series [8] and 2.36 absorbance units in series [9].
